The values that follow come from patent US10677782B2, “Methods of determining interferon having direct inhibitory effects on tumors and uses thereof” (SUPERLAB FAR EAST LIMITED, priority 2013, dated 2020).

Data set [1] has as its system Human Colon Cancer HT-29 Xenografts. Description: Human colon cancer HT-29 xenografts in nude mice (Example 3). It counts as in vivo. The conditions noted are these: for TV (mm^3, mean ± SD) (D0): day 0, start of treatment; for TV (mm^3, mean ± SD) (D28): day 28. Here is the method:
Before commencement of this study, the xenografts were passaged twice in nude mice. Under sterile conditions, well-grown tumors were cut into 1.5 mm^3 fragments and one such fragment was injected by trocar needle into the right flank of each study animal. […] Individual tumor size (length and width) was measured twice per week with microcalipers. Tumor volume (V) was calculated using the formula: V=(length×width^2)/2. Individual relative tumor volume (RTV) was calculated using the formula: RTV=Vt/V0, where Vt is the tumor volume on the day of measurement and V0 is the tumor volume on the day of first treatment. Therapeutic effect of the test article or control article was expressed in terms of TIC (%), using the formula: TIC (%) (mean RTV of the treated group/mean RTV of the control group)×100%; and in terms of % Inhibition, using the formula: % Inhibition=100%−T/C %.
Then, 1.5 mm^3 fragments were prepared for s.c. implantation into the test animals.
In general terms: A xenograft is tissue or cells of one species grown in another, often human tumour cells in immunodeficient mice.

The nature of data set [2]: Tolerability and body weight of tumor-bearing mice, Example 2. In kind it is in vivo, BALB/cA nu/nu mice. As to the method: Animals were assigned to treatment groups randomly. Initially, all animals were placed in one large animal cage. For assignment to the study, they were later separately housed, with 6 animals per cage per treatment group. Groups 1 and 2 are Control groups in which the animals were each administered the vehicle every other day after the first treatment. […] The animals in Groups 4, 5 and 6 were each given rSIFN-co every other day after the first treatment at 0.15 mg/mouse (Group 4) or 0.10 mg/mouse (Group 5) or 0.05 mg/mouse (Group 6), respectively. Tumor growth was monitored by measuring the length and width of each tumor twice a week during the course of the study. Each animal was also weighed twice a week during the course of the study.
The study was conducted as in Example 1 except as specifically indicated otherwise. Human cervical cancer xenografts were first established and prepared in a similar manner as in Example 1, by inoculating 5×10^6 Hela cells subcutaneously in nude mice and passaging the well-grown xenografts twice in nude mice. Then 1.5 mm^3 fragments were prepared for s.c. implantation into the animals. The body weight of the animals averaged 19±2 g at dose initiation In contrast to Example 1, the animals used were all female.

A further data set relates to A549 tumor cells. Kind of data set: Cell viability over 1-6 days, MTT assay. The conditions noted are these: 10 μg/ml. In kind it is cell-based, human. As to the method: The cell survival rate was evaluated in a standard MTT assay (3-(4,5-dimethylthiazol-2-yl)-2,5-diphenyltetrazolium bromide assay, Sigma, St. Louis, Mo.). For the assay, about 20 μl MTT (at […]) was added to each well. The cells were incubated at 37° C. for 4 hr. After that, the supernatant of each well was drawn off carefully and then an equal volume (150 microliter) of dimethyl sulfoxide (DMSO) was added to each well and mixed thoroughly on a shaker for 15 min. The absorbance from the plates was read at 595 nm with a Thermo Scientific Microplate Reader (Thermo Fisher Scientific Inc., Lowell, Mass.). The relative cell viability was calculated as follows: Cell viability=(Treated group(OD595) minus blank(OD595))/(Control group(OD595) minus blank(OD595))×100%.

The next data set concerns Axin2 mRNA in A549 cells. Description: qPCR of Wnt pathway target genes in A549 cells. It counts as cell-based, human. The settings on record: 10 μg/ml, 24 hr; Mock control set at 1. Here is the method: (§1) After 24 hr of treatment, cellular total mRNA was isolated using TRIZOL Reagent and cDNA was synthesized and further subjected to qPCR, using specific primers of four (4) Wnt signaling downstream genes, Axin2, CD24, Survivin and ID2. Experiments were conducted in triplicate and normalized with the Mock group.
(§2) Total mRNA was isolated using TRIZOL Reagent (Invitrogen, Carlsbad, Calif.) according to the manufacturer's instructions. Complementary DNA (cDNA) was synthesized using a RT-PCR Kit (Cat #: FSQ-101, TOYOBO, Japan) according to the manufacturer's instructions and then subjected to qPCR with a SYBR Green PCR kit (Cat #: QPK-201, TOYOBO, Japan). The primers of the four Wnt pathway target genes were as follows: Axin2 sense primer: 5′-[…]-3′ (SEQ ID NO:8) and antisense primer: 5′-[…]-3′ (SEQ ID NO: 9); CD24 sense primer: 5′-[…]-3′ (SEQ ID NO: 10) andantisense primer: 5′-[…]-3′ (SEQ ID NO: 11); Survivin sense primer: 5′-[…]-3′ (SEQ ID NO: 12) and antisense primer: 5′-[…]-3′ (SEQ ID NO: 13) and ID2 sense primer: 5′-[…]-3′ (SEQ ID NO: 14) and antisense primer: 5′-[…]-3′ (SEQ ID NO: 15).
(§3) The amplification protocol consisted of incubations at 95° C. for 1 minute, 40 cycles (95° C. for 15 seconds, 60° C. for 15 seconds, 72° C. for 30 seconds). Incorporation of the SYBR Green dye into PCR products was monitored in real time with a Bio-Rad Detection System and subsequently analyzed using Bio-Rad CFX manager 2.1 software. The samples were pooled for each condition and run in duplicate. Treated samples were compared to Mock using the 2^−ΔΔCt method and plotted as fold change. GAPDH was used as the normalization control.
A general note: Real-time PCR tracks product formation cycle by cycle.

The test system of the next data set is CD24 mRNA in A549 cells. Kind of data set: qPCR of Wnt pathway target genes in A549 cells. In kind it is cell-based, human. The conditions noted are these: 10 μg/ml, 24 hr; Mock control set at 1. As to the method:
as §1, §2, §3

The subject of another data set is ID2 mRNA in A549 cells. Kind of data set: qPCR of Wnt pathway target genes in A549 cells. It counts as cell-based, human. The settings on record: 10 μg/ml, 24 hr; Mock control set at 1. As to the method:
as §1, §2, §3

In data set [3] the test system is Survivin mRNA in A549 cells. Description: qPCR of Wnt pathway target genes in A549 cells. It counts as cell-based, human. The settings on record: 10 μg/ml, 24 hr; Mock control set at 1. Here is the method:
as §1, §2, §3

Data set [4] concerns procaspase-3, cleaved caspase-3, procaspase-8, cleaved caspase-8, PARP in A549 cells. Description: Apoptosis-related molecular markers by Western Blot. It counts as cell-based, human. The conditions noted are these: 24 hr or 48 hr; interferons at 10 mcg/ml. The source says: (§4) Thereafter, apoptosis-related molecular markers were monitored by Western Blot. The primary antibodies used were mouse monoclonal anti-beta-tubulin (1:2000, Cat #: CW0098A) and mouse monoclonal anti-GAPDH (1:2000, Cat #: CW0100A) (Kangwei Biotechnology, China); mouse monoclonal anti-PARP (1:1000, Cat #: se-2007, Santa Cruz Biotechnology, Inc.); rabbit monoclonal anti-procaspase 3 (1:1000, Cat #: 9665), and rabbit polyclonal anti-cleaved caspase 3 (1:1000, Cat #: 9661) (Cell Signaling Technology, USA); goat polyclonal anti-procaspase 8 (1:1000, Cat #: sc-6136, Santa Cruz Biotechnology, Inc); rabbit monoclonal anti-cleaved caspase 8 (1:1000, Cat #: 9496) (Cell Signaling Technology, USA).

The subject of data set [5] is procaspase-3, cleaved caspase-3, procaspase-8, cleaved caspase-8, PARP in SW620 cells. Described as above. The conditions noted are these: 24 hr or 48 hr; interferons at 10 mcg/ml. It counts as cell-based, human.
From the text: as §4

Where [6] appears, read: 0.05 mg/mouse i.t. every other day.
Where [7] appears, read: 0.10 mg/mouse i.t. every other day.
Where [8] appears, read: 0.15 mg/mouse i.t. every other day.

B1: rSIFN-co: Recombinant super-compound interferon; amino acid sequence SEQ ID NO: 1 (same as interferon alfacon-1), encoded by SEQ ID NO: 2, novel tertiary structure (protein)
chain: MCDLPQTHSLGNRRALILLAQMRRISPFSCLKDRHDFGFPQEEFDGNQFQKAQAISVLHEMIQQTFNLFSTKDSSAAWDESLLEKFYTELYQQLNDLEACVIQEVGVEETPLMNVDSILAVKKYFQRITLYLTEKKYSPCAWEVVRAEIMRSFSLSTNLQERLRRKE
modifications: Amino acid sequence of recombinant interferon
As for B1, the “TV (mm^3, mean ± SD) (D0)” value is given as 130 ± 26 mm^3 in data set [1] (setting [6]), 128 ± 39 mm^3 in data set [1] (setting [7]) and 131 ± 36 mm^3 in data set [1] (setting [8]). In addition, the “TV (mm^3, mean ± SD) (D28)” value in data set [1] (setting [6]) came out at 416 ± 166 mm^3; in [1] (setting [7]) it was 541 ± 196 mm^3; in data set [1] (setting [8]) it was 570 ± 144 mm^3. Also, the “tolerability: signs of toxicity” value in data set [2] (0.05-0.15 mg/mouse i.t. every other day, 28 days) was “no signs of toxicity”. For the same molecule, the “change in average body weight” value in data set [2] (28-day treatment period) is “Very little change”. The “cell viability, time dependent effect” value with A549 tumor cells is on record as “apparent for A549 cells for only about the first 3 days of treatment”. Besides, in the data set on Axin2 mRNA in A549 cells, the “relative expression level of Axin2 mRNA” value is recorded as “about 0.4”. Moreover, the “relative expression level of CD24 mRNA” value with CD24 mRNA in A549 cells was “about 0.4”. The “relative expression level of ID2 mRNA” value in the data set with ID2 mRNA in A549 cells is listed as “about 0.4”. Also, the “relative expression level of Survivin mRNA” value in [3] was “about 0.4”. Also, the “level of apoptosis-related molecular markers (procaspase-3, procaspase-8, PARP, cleaved caspase-3, cleaved caspase-8)” value in [4] is listed as “neither of the interferons, IFN alpha-2b nor rSIFN-co, caused any reduction in the level of procaspase-3 or procaspase-8 or PARP, or induced any enhancement in the level of cleaved caspase-3 or cleaved caspase-8”; in data set [5] it was “neither of the interferons, IFN alpha-2b nor rSIFN-co, caused any reduction in the level of procaspase-3 or procaspase-8 or PARP, or induced any enhancement in the level of cleaved caspase-3 or cleaved caspase-8”.
